Experiments:
[1] = target: insulin IR β receptor (Homo sapiens, UniProt P06213); assay: HTRF kit method (insulin receptor phosphorylation); assay type: cell-based; settings: specificity comparison, Figure 6
Text: Currently, commercial kits such as HTRF (homogeneous time-resolved fluorescence) and AlphaElisa are commonly used to assess insulin activity. These assays measure insulin IR β receptor phosphorylation levels to characterize insulin's cellular bioactivity. On the one hand, commercial test kits such as HTRF and AlphaElisa are expensive and have high detection costs; on the other hand, technical means such as HTRF and AlphaElisa are relatively complicated to operate, usually requiring the addition of insulin drugs to co-incubate with cells, then adding lysis buffer for incubation and lysis, and then adding the corresponding phosphorylated antibody solution for incubation, and finally testing. Under normal circumstances, the sample volume of each step of these kits needs to be controlled to 4~8 µl, which requires a high level of operational skills of the analyst.
Two different analysts used the same batch of test products (prepared in 6 parallel portions) and reference products to perform tests using the HTRF kit method on different dates.

[2] = target: T1, insulin receptor B (Homo sapiens, UniProt P06213); assay: Luciferase reporter gene detection method (HEK293/IRB-STAT5b-03-Luciferase cells, luminescence signal); assay type: cell-based; settings: after stimulation of cells
T1 construct: expressed in transfected cells; host or cells: HEK293 (HEK293-IRB monoclonal line; HEK293/IRB-STAT5b-03-Luciferase 001#clone)
Experimental: ① 0.6 mM insulin glargine reference solution: An appropriate amount of insulin glargine reference was weighed, dissolved completely in 0.01 M HCL and diluted to 0.6 mM, and mixed thoroughly.
② 0.6 mM Insulin Glargine Test Solution: An appropriate amount of insulin glargine injection solution was taken.
③ 15000 nM Reference/Test Solution Stock Solution: 780 µl of 0.01 M hydrochloric acid solution was added to 20 µl of a 0.6 mM insulin glargine reference/test solution and mixed thoroughly.
④ […] control/test solution: 780 µl of DMEM medium containing 1% FBS (fetal bovine serum) was added to 20 µl of a 15000 nM reference/test solution.
⑤ Serial dilutions of control/test compounds: Dilutions were performed in a 96-well plate according to the method shown in Table 1.
The culture flask was taken out of the incubator, the culture medium was discarded, and 2 ml of DPBS (sterile saline) buffer was added and gently washed twice. 1 ml of DPBS and 1 ml of trypsin solution were slowly added along the cell-free side of the flask to digest the cells for approximately 2 min. […]
After 15 h of incubation, the 384-well plate was removed from the incubator and allowed to stand at room temperature for approximately 5 min. […] After 3 minutes, the luminescence signal was detected in the LUM mode on a multi-functional microplate reader. […]

For liraglutide, the “response in HTRF kit assay” value [1] was “no response” and the dose-effect relationship [2] was “no obvious dose-effect relationship”.

From patent publication EP4722237A1, “METHOD FOR DETECTING BIOLOGICAL ACTIVITY OF INSULIN OR ANALOGUE THEREOF AND KIT” (Sunshine Lake Pharma Co., Ltd., priority 2023, dated 2024)
